# Measured values taken from paper PMC4456216 (Nature structural & molecular biology, 2015).
# B1: mouse CBP KIX domain (domain or fragment)
# chain: not shown
# B2: BMAL2 transactivation domain (TAD), residues 540-579 (domain or fragment, mouse, UniProt Q2VPD4 540-579, looked up)
# chain: LGFDVLCDSDSIDMAAFMNYLEAEGGLGDPGDFSDIQWAL
# Legend:
# [1] = target: B2; assay: ITC
# [2] = target: p300 KIX domain (residues 565-653) (mouse, UniProt B2RWS6 565-653); assay: NMR titration
# p300 KIX domain (residues 565-653), sequence (B2RWS6 565-653): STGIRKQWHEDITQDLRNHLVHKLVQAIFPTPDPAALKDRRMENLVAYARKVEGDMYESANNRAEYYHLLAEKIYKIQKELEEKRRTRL
Binder,stoichiometry N [1],binding result [2]
B1,0.7,
MVNHAEASRLNIERMKQIYQQLSRYRGLGLLASV [mouse CRY1 CC peptide (residues 470-503)],0.7,
B2,,binds
